Data: FireProtDB (doi:10.1021/bi060848l)

B1: Camphor 5-monooxygenase, P00183 (parent)
chain: MTTETIQSNANLAPLPPHVPEHLVFDFDMYNPSNLSAGVQEAWAVLQESNVPDLVWTRCNGGHWIATRGQLIREAYEDYRHFSSECPFIPREAGEAYDFIPTSMDPPEQRQFRALANQVVGMPVVDKLENRIQELACSLIESLRPQGQCNFTEDYAEPFPIRIFMLLAGLPEEDIPHLKYLTDQMTRPDGSMTFAEAKEALYDYLIPIIEQRRQKPGTDAISIVANGQVNGRPITSDEAKRMCGLLLVGGLDTVVNFLSFSMEFLAKSPEHRQELIERPERIPAACEELLRRFSLVADGRILTSDYEFHGVQLKKGDQILLPQMLSGLDERENACPMHVDFSRQKVSHTTFGHGSHLCLGQHLARREIIVTLKEWLTRIPDFSIAPGAQIQHKSGIVSGVQALPLVWDPATTKAV

Variants of: B1
Settings: Pseudomonas putida; pH 7.4; Thermal; DSC; Tris 50 mM; KCl 100 mM; reversible: Yes; structure 2CPP; whole UniProt chain shown

Q: With MTTETIQSNANLAPLPPHVPEHLVFDFDMYNPSNLSAGVQEAWAVLQESNVPDLVWTRCNGGHWIATRGQLIREAYEDYRHFSSECPFIPREAGEAYDFIPVSMDPPEQRQFRALANQVVGMPVVDKLENRIQELACSLIESLRPQGQCNFTEDYAEPFPIRIFMLLAGLPEEDIPHLKYLTDQMTRPDGSMTFAEAKEALYDYLIPIIEQRRQKPGTDAISIVANGQVNGRPITSDEAKRMCGLLLVGGLDTVVNFLSFSMEFLAKSPEHRQELIERPERIPAACEELLRRFSLVADGRILTSDYEFHGVQLKKGDQILLPQMLSGLDERENACPMHVDFSRQKVSHTTFGHGSHLCLGQHLARREIIVTLKEWLTRIPDFSIAPGAQIQHKSGIVSGVQALPLVWDPATTKAV [T102V] as the variant, how does the Tm read?
A: 63.5 °C

Q: And the “change of melting temperature, mutant - wild type (higher = more stable)” value?
A: -1.8 °C
